Numbered stars: 1 amine (or outer) side, 2 acyl side, 3 side chain; on linkers, the order of the positions; unused ones are H or OH. Ends that are not written are not given here. * marks the point of attachment. C20 diacid = O=C(O)CCCCCCCCCCCCCCCCCCC(=O)*; C18 diacid = O=C(O)CCCCCCCCCCCCCCCCC(=O)*; γGlu = O=C(O)[C@H](CCC(=O)[*:2])N[*:1]; AEEA = NCCOCCOCC(=O)O
T1: human calcitonin receptor (human, UniProt P30988 25-474)
T1 construct: whole, on cells; also called hCT-R; hCTR
T1 sequence (looked up): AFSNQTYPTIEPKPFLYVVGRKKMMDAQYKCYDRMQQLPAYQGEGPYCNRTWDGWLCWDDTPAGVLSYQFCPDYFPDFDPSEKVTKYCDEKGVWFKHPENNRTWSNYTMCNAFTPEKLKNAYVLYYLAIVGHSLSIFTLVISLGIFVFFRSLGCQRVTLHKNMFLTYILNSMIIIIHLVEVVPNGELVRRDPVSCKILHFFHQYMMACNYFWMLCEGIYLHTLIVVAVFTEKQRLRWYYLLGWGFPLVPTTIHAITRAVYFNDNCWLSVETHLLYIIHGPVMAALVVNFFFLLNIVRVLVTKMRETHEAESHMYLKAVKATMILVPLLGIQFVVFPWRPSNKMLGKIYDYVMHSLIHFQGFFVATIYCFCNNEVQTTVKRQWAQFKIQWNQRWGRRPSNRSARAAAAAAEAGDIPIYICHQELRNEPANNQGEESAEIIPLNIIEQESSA

B1: [N-terminal(C18 diacid-gGlu-2xOEG), des1, 4G, 9V, 15Q, 21Q, 23Y, 30S, 31G, 32T, 33Y]mimylin (peptide)
peptide: {C18 diacid-γGlu-AEEA-AEEA}-ASGLSTAVLGRLSQELHELQTYPRTETGSGTY-NH2
SMILES: CC(C)C[C@H](NC(=O)CNC(=O)[C@H](CO)NC(=O)[C@H](C)NC(=O)COCCOCCNC(=O)COCCOCCNC(=O)CC[C@H](NC(=O)CCCCCCCCCCCCCCCCC(=O)O)C(=O)O)C(=O)N[C@@H](CO)C(=O)N[C@H](C(=O)N[C@@H](C)C(=O)N[C@H](C(=O)N[C@@H](CC(C)C)C(=O)NCC(=O)N[C@@H](CCCNC(=N)N)C(=O)N[C@@H](CC(C)C)C(=O)N[C@@H](CO)C(=O)N[C@@H](CCC(N)=O)C(=O)N[C@@H](CCC(=O)O)C(=O)N[C@@H](CC(C)C)C(=O)N[C@@H](Cc1c[nH]cn1)C(=O)N[C@@H](CCC(=O)O)C(=O)N[C@@H](CC(C)C)C(=O)N[C@@H](CCC(N)=O)C(=O)N[C@H](C(=O)N[C@@H](Cc1ccc(O)cc1)C(=O)N1CCC[C@H]1C(=O)N[C@@H](CCCNC(=N)N)C(=O)N[C@H](C(=O)N[C@@H](CCC(=O)O)C(=O)N[C@H](C(=O)NCC(=O)N[C@@H](CO)C(=O)NCC(=O)N[C@H](C(=O)N[C@@H](Cc1ccc(O)cc1)C(N)=O)[C@@H](C)O)[C@@H](C)O)[C@@H](C)O)[C@@H](C)O)C(C)C)[C@@H](C)O
notes: also called Ex. #121
B2: [N-terminal(C20 diacid-gGlu), des1, 30S, 31G, 33L]mimylin (peptide)
peptide: {C20 diacid-γGlu}-ASELSTAALGRLSAELHELATLPRTETGSGSL-NH2
SMILES: CC(C)C[C@H](NC(=O)[C@H](CO)NC(=O)CNC(=O)[C@H](CO)NC(=O)CNC(=O)[C@@H](NC(=O)[C@H](CCC(=O)O)NC(=O)[C@@H](NC(=O)[C@H](CCCNC(=N)N)NC(=O)[C@@H]1CCCN1C(=O)[C@H](CC(C)C)NC(=O)[C@@H](NC(=O)[C@H](C)NC(=O)[C@H](CC(C)C)NC(=O)[C@H](CCC(=O)O)NC(=O)[C@H](Cc1c[nH]cn1)NC(=O)[C@H](CC(C)C)NC(=O)[C@H](CCC(=O)O)NC(=O)[C@H](C)NC(=O)[C@H](CO)NC(=O)[C@H](CC(C)C)NC(=O)[C@H](CCCNC(=N)N)NC(=O)CNC(=O)[C@H](CC(C)C)NC(=O)[C@H](C)NC(=O)[C@H](C)NC(=O)[C@@H](NC(=O)[C@H](CO)NC(=O)[C@H](CC(C)C)NC(=O)[C@H](CCC(=O)O)NC(=O)[C@H](CO)NC(=O)[C@H](C)NC(=O)CC[C@H](NC(=O)CCCCCCCCCCCCCCCCCCC(=O)O)C(=O)O)[C@@H](C)O)[C@@H](C)O)[C@@H](C)O)[C@@H](C)O)C(N)=O
notes: also called Ex. #62
B3: [N-terminal(C20 diacid-gGlu), des1, 30T, 31G, 32T]mimylin (peptide)
peptide: {C20 diacid-γGlu}-ASELSTAALGRLSAELHELATLPRTETGTGTP-NH2
SMILES: CC(C)C[C@H](NC(=O)[C@H](C)NC(=O)[C@H](C)NC(=O)[C@@H](NC(=O)[C@H](CO)NC(=O)[C@H](CC(C)C)NC(=O)[C@H](CCC(=O)O)NC(=O)[C@H](CO)NC(=O)[C@H](C)NC(=O)CC[C@H](NC(=O)CCCCCCCCCCCCCCCCCCC(=O)O)C(=O)O)[C@@H](C)O)C(=O)NCC(=O)N[C@@H](CCCNC(=N)N)C(=O)N[C@@H](CC(C)C)C(=O)N[C@@H](CO)C(=O)N[C@@H](C)C(=O)N[C@@H](CCC(=O)O)C(=O)N[C@@H](CC(C)C)C(=O)N[C@@H](Cc1c[nH]cn1)C(=O)N[C@@H](CCC(=O)O)C(=O)N[C@@H](CC(C)C)C(=O)N[C@@H](C)C(=O)N[C@H](C(=O)N[C@@H](CC(C)C)C(=O)N1CCC[C@H]1C(=O)N[C@@H](CCCNC(=N)N)C(=O)N[C@H](C(=O)N[C@@H](CCC(=O)O)C(=O)N[C@H](C(=O)NCC(=O)N[C@H](C(=O)NCC(=O)N[C@H](C(=O)N1CCC[C@H]1C(N)=O)[C@@H](C)O)[C@@H](C)O)[C@@H](C)O)[C@@H](C)O)[C@@H](C)O
notes: also called Ex. #74
B4: [N-terminal(C20 diacid-gGlu), des1, 30S, 31G, 33S]mimylin (peptide)
peptide: {C20 diacid-γGlu}-ASELSTAALGRLSAELHELATLPRTETGSGSS-NH2
SMILES: CC(C)C[C@H](NC(=O)[C@H](C)NC(=O)[C@H](C)NC(=O)[C@@H](NC(=O)[C@H](CO)NC(=O)[C@H](CC(C)C)NC(=O)[C@H](CCC(=O)O)NC(=O)[C@H](CO)NC(=O)[C@H](C)NC(=O)CC[C@H](NC(=O)CCCCCCCCCCCCCCCCCCC(=O)O)C(=O)O)[C@@H](C)O)C(=O)NCC(=O)N[C@@H](CCCNC(=N)N)C(=O)N[C@@H](CC(C)C)C(=O)N[C@@H](CO)C(=O)N[C@@H](C)C(=O)N[C@@H](CCC(=O)O)C(=O)N[C@@H](CC(C)C)C(=O)N[C@@H](Cc1c[nH]cn1)C(=O)N[C@@H](CCC(=O)O)C(=O)N[C@@H](CC(C)C)C(=O)N[C@@H](C)C(=O)N[C@H](C(=O)N[C@@H](CC(C)C)C(=O)N1CCC[C@H]1C(=O)N[C@@H](CCCNC(=N)N)C(=O)N[C@H](C(=O)N[C@@H](CCC(=O)O)C(=O)N[C@H](C(=O)NCC(=O)N[C@@H](CO)C(=O)NCC(=O)N[C@@H](CO)C(=O)N[C@@H](CO)C(N)=O)[C@@H](C)O)[C@@H](C)O)[C@@H](C)O
notes: also called Ex. #63
B5: [des1, 5V, 9V, 30S, 31G]mimylin (peptide)
peptide: ASEVSTAVLGRLSAELHELATLPRTETGSGSP-NH2
notes: backbone without side chain; also called Ex. #86bb; 86bb
B6: [des1, 6T, 9V, 30T, 31G, 32T]mimylin (peptide)
peptide: ASELTTAVLGRLSAELHELATLPRTETGTGTP-NH2
notes: backbone without side chain; also called Ex. #95bb; 95bb
B7: [des1, 12H, 30S, 31G]mimylin (peptide)
peptide: ASELSTAALGHLSAELHELATLPRTETGSGSP-NH2
notes: backbone without side chain; also called Ex. #72bb; 72bb
B8: [N-terminal(C20 diacid-gGlu), des1, 23Y, 30S, 31G, 34G, C-terminal(-)]mimylin (peptide)
peptide: {C20 diacid-γGlu}-ASELSTAALGRLSAELHELATYPRTETGSGSPG-OH
SMILES: CC(C)C[C@H](NC(=O)[C@H](C)NC(=O)[C@H](C)NC(=O)[C@@H](NC(=O)[C@H](CO)NC(=O)[C@H](CC(C)C)NC(=O)[C@H](CCC(=O)O)NC(=O)[C@H](CO)NC(=O)[C@H](C)NC(=O)CC[C@H](NC(=O)CCCCCCCCCCCCCCCCCCC(=O)O)C(=O)O)[C@@H](C)O)C(=O)NCC(=O)N[C@@H](CCCNC(=N)N)C(=O)N[C@@H](CC(C)C)C(=O)N[C@@H](CO)C(=O)N[C@@H](C)C(=O)N[C@@H](CCC(=O)O)C(=O)N[C@@H](CC(C)C)C(=O)N[C@@H](Cc1c[nH]cn1)C(=O)N[C@@H](CCC(=O)O)C(=O)N[C@@H](CC(C)C)C(=O)N[C@@H](C)C(=O)N[C@H](C(=O)N[C@@H](Cc1ccc(O)cc1)C(=O)N1CCC[C@H]1C(=O)N[C@@H](CCCNC(=N)N)C(=O)N[C@H](C(=O)N[C@@H](CCC(=O)O)C(=O)N[C@H](C(=O)NCC(=O)N[C@@H](CO)C(=O)NCC(=O)N[C@@H](CO)C(=O)N1CCC[C@H]1C(=O)NCC(=O)O)[C@@H](C)O)[C@@H](C)O)[C@@H](C)O
notes: also called Ex. #89
B9: [N-terminal(C20 diacid-gGlu), des1, 23Y, 30S, 31G, 34K, C-terminal(-)]mimylin (peptide)
peptide: {C20 diacid-γGlu}-ASELSTAALGRLSAELHELATYPRTETGSGSPK-OH
SMILES: CC(C)C[C@H](NC(=O)[C@H](C)NC(=O)[C@H](C)NC(=O)[C@@H](NC(=O)[C@H](CO)NC(=O)[C@H](CC(C)C)NC(=O)[C@H](CCC(=O)O)NC(=O)[C@H](CO)NC(=O)[C@H](C)NC(=O)CC[C@H](NC(=O)CCCCCCCCCCCCCCCCCCC(=O)O)C(=O)O)[C@@H](C)O)C(=O)NCC(=O)N[C@@H](CCCNC(=N)N)C(=O)N[C@@H](CC(C)C)C(=O)N[C@@H](CO)C(=O)N[C@@H](C)C(=O)N[C@@H](CCC(=O)O)C(=O)N[C@@H](CC(C)C)C(=O)N[C@@H](Cc1c[nH]cn1)C(=O)N[C@@H](CCC(=O)O)C(=O)N[C@@H](CC(C)C)C(=O)N[C@@H](C)C(=O)N[C@H](C(=O)N[C@@H](Cc1ccc(O)cc1)C(=O)N1CCC[C@H]1C(=O)N[C@@H](CCCNC(=N)N)C(=O)N[C@H](C(=O)N[C@@H](CCC(=O)O)C(=O)N[C@H](C(=O)NCC(=O)N[C@@H](CO)C(=O)NCC(=O)N[C@@H](CO)C(=O)N1CCC[C@H]1C(=O)N[C@@H](CCCCN)C(=O)O)[C@@H](C)O)[C@@H](C)O)[C@@H](C)O
notes: also called Ex. #90
B10: [N-terminal(C20 diacid-gGlu), -1E, 1A, 23Y, 30S, 31G]mimylin (peptide)
peptide: {C20 diacid-γGlu}-EAASELSTAALGRLSAELHELATYPRTETGSGSP-NH2
SMILES: CC(C)C[C@H](NC(=O)[C@H](C)NC(=O)[C@H](C)NC(=O)[C@@H](NC(=O)[C@H](CO)NC(=O)[C@H](CC(C)C)NC(=O)[C@H](CCC(=O)O)NC(=O)[C@H](CO)NC(=O)[C@H](C)NC(=O)[C@H](C)NC(=O)[C@H](CCC(=O)O)NC(=O)CC[C@H](NC(=O)CCCCCCCCCCCCCCCCCCC(=O)O)C(=O)O)[C@@H](C)O)C(=O)NCC(=O)N[C@@H](CCCNC(=N)N)C(=O)N[C@@H](CC(C)C)C(=O)N[C@@H](CO)C(=O)N[C@@H](C)C(=O)N[C@@H](CCC(=O)O)C(=O)N[C@@H](CC(C)C)C(=O)N[C@@H](Cc1c[nH]cn1)C(=O)N[C@@H](CCC(=O)O)C(=O)N[C@@H](CC(C)C)C(=O)N[C@@H](C)C(=O)N[C@H](C(=O)N[C@@H](Cc1ccc(O)cc1)C(=O)N1CCC[C@H]1C(=O)N[C@@H](CCCNC(=N)N)C(=O)N[C@H](C(=O)N[C@@H](CCC(=O)O)C(=O)N[C@H](C(=O)NCC(=O)N[C@@H](CO)C(=O)NCC(=O)N[C@@H](CO)C(=O)N1CCC[C@H]1C(N)=O)[C@@H](C)O)[C@@H](C)O)[C@@H](C)O
notes: also called Ex. #83

What follows are binders tested against T1, human calcitonin receptor (assay: whole-cell competition vs 125I-human calcitonin (Assay VIIa)).
Outline: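 BHK tk'ts 13 cells stably co-expressing human calcitonin receptor and a CRE-luciferase reporter, seeded overnight at 37 °C. Bound tracer counted by scintillation after cold HBSS washes and NaOH/SDS lysis; IC₅₀ from one-site competition fit taken as receptor affinity.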

Binder	IC50
B1	0.3 nM
B2	2.33 nM
ASELTTAVLGRLEAELHELTTLPRTETGTGTP-NH2 (backbone without side chain) [[des1, 6T, 9V, 14E, 21T, 30T, 31G, 32T]mimylin]	62.9 nM
B3	1.08 nM
B4	2.6 nM
B5	0.52 nM
B6	15.3 nM
B7	4.53 nM
B8	3.6 nM
B9	6.84 nM
B10	1.57 nM

From patent publication US20160272683A1 (Novo Nordisk, published 2016)
